Test results as given in the DeepSol protein solubility set.

test: soluble on expression in E. coli; label from the status in PepcDB or PDB records

| Sequence | soluble on expression in E. coli |
| --- | --- |
| MGSDKIHHHHHHMQPRLVIAGTHSGVGKTTVTLGLMAAFVEKGNIVQGFKCGPDYIDPSYHRAVTKRASRNLDSWMVSEDVVNDIFIEGCNGADLSIIEGVMGFYDGKASTSDKGSTADISLLLQAPVLLVVDISGMARSAAAVVKGFQQLNEKVKIAGVILNGAGSERHAEMCSEAIKEACGIPALGYLKKGDVPSIPERHLGLVPALERGEHDSLFSQLAAVVSRQFDLERIERLALEASALSRRTNLFQQTKRPSVVKIAVAYDAAFHFYYEENFTLLRQAGAELVYFSPLRGEDLPSHCDGLYLGGGFPEEFADELSQWIKDHPQLKKRVQSGLPTLAECGGYMFLGEQLTTTKGKTVEMAGVIPMVVQMENKLVSLGYRDVTPLDDSFLLSKGQQIRGHEFHYSKAVYTETERPAYFVKGLFGEGKEGYMSDHLLAGYTHLHFASEPAVATQWVKACEVYKNRRLHRGQVSQ | not soluble |
| MGVVNVPSNGREKFKKNWKFCVGTGRLGLALQKEYLDHLKLVQEKIGFRYIRGHGLLSDDVGIYREVEIDGEMKPFYNFTYIDRIVDSYLALNIRPFIEFGFMPKALASGDQTVFYWKGNVTPPKDYNKWRDLIVAVVSHFIERYGIEEVRTWLFEVWNEPNLVNFWKDANKQEYFKLYEVTARAVKSVDPHLQVGGPAICGGSDEWITDFLHFCAERRVPVDFVSRHAYTSKAPHKKTFEYYYQELEPPEDMLEQFKTVRALIRQSPFPHLPLHITEYNTSYSPINPVHDTALNAAYIARILSEGGDYVDSFSYWTFSDVFEEMDVPKALFHGGFGLVALHSIPKPTFHAFTFFNALGDELLYRDGEMIVTRRKDGSIAAVLWNLVMEKGEGLTKEVQLVIPVSESAVFIKRQIVNEQYGNAWRVWKQMGRPRFPSRQAVETLRQVAQPHVMTEQRRATDGVIHLSIVLSKNEVTLIEIEQVRDETSTYVGLDDGEITSYSS | soluble |
| GPGSMHDLPEGFEFMEHKVVNKDIHAPHENLETLRLTLTRQDEFLLREEPVKCVTVTGTNGEYGIYPGHAYKIVQLNPSPLTVEYTDGTTKKYFVSGGFAHINNEGSCDVNTVECTLLDDLDLAIAEKELAAQQAALGSAKDDKAKSVVEIRISVIEAVIAALKHH | soluble |
| MWDVIVVGGGPSGLSAALFLARAGLKVLVLDGGRSKVKGVSRVPNYPGLLDEPSGEELLRRLEAHARRYGAEVRPGVVKGVRDMGGVFEVETEEGVEKAERLLLCTHKDPTLPSLLGLTRRGAYIDTDEGGRTSYPRVYAAGVARGKVPGHAIISAGDGAYVAVHLVSDLRGEPYKDHAL | soluble |
| MGSDKIHHHHHHMALASTLATCLNSKNTQYDIIHHPYTLSSMATAEAAHIPGDRLAKTLLLEDEMGYVAAVIPSNHHLHMAALCEQTGRKLVLAHEDEIREVFKDCDLGAIPPVAMAYGMQTYVDDSLMKHPDVYFEAGDHQELVHMSMDQFSSLMSDAEQGHFSRRMM | not soluble |
| EVKLVESGGGLVLPGGSLRLSCATSGFTFTDYYMTWVRQPPGKALEWLGFIGNKANDYTTEYSASVKGRFTISRDDSQSILYLQMSTLRAEDRATYYCATVYGNYPYFDVWGVGTTVAVSSATTTAPSVYPLVPGCSDTSGSSVTLGCLVKGYFPEPVTVKWNYGALSSGVRTVSSVLQSGFYSLSSLVTVPSSTWPSQTVICNVAHPASKVDLIKEISGP | soluble |
| MGSDKIHHHHHHMTTPSETSPSRMNSTQAWVSYLSKVELPVLANTLRQINELTDSRNSTVNELANVILNDAQLTSQVLRLSNTVFYNQTRTQVSTVSRAITLIGFDAVKSMAISSLIVDSLLKRNDRPHLLRCLARAIHAAVQARCLMPKRTEHALEEVFIGALLMNIGELAFWSCETEQASELEERLRLEEPPVEAQKAVLHTTFTEITRGLVDAWSLGPFIKEVVAPGKANSMASSLVRNSVEMARVSENGWSGAEMDKVLEKLSDDIGETPAAIRDQLKVNAQEASKVAVSLGIPQVTALLPGNQESVPDAPAMDSDLQLQILRELTQTLAEKPDINEVCQLVIEGIHRAIGMQRVALLMTDRSGELLVPRKVGGRGTEEWREHFVIKKDGTGPLGPLLPHGTCAVYEPRKQTEGVPYDRWLGKVPALAGSLKAKGRLVGLFYADNAAAGYVPSEQQLAAFGHFIQNAQLCLTLMSARG | not soluble |
| MGSDKIHHHHHHMAIRAKTNNLIQIRPLTGRRLANSEHNRQEMKNGATVLTSKPQRLVFELTNACNLNCLMCGRNSATFELTRFNSEWFKKFEPIMSDIEEVTLMGWGEPTIHPQFKEMLQYLHERGIRKYFCTNGMRLDVLKDAIFDYEVDVFAVSMDGADAKTNEFLRRGLNYQKVIEGLKAITNEKALRGLNFPHINFVMTMMKSNIRQLPDMVDLAAELGLNEVKGVFLTAFSENLLEETLFDDMDLVRYCFGQAEERAAKLGILLKLPHQRGEDPAGDAAHKPCFTAWRDFFLGSDGYVRACMSSPEKLFHIDQYPDFESMWNSREYQEWRAQVNVPGKMCPSCGRCYQSSFANWNKEHAFIQIDTEFSPKWEK | not soluble |
| AVIGMNEAASALTPSRVSSLPDTQRAAWQEYLARSEAQLSRDKASLAAELAPGQPLPPPPAEGKGADTMPLDKPAAWYTSKAARHVADVIVSFQTPAGGWGKNQPRDGALRLPGQHYTGENVAKVKSGSNDLDAARDRDWHYVGTIDNDATVTEIRFLAQVVSQLAPEEAAPYRDAALKGIEYLLASQFPNGGWPQVWPLEGGYHDAITYNDDALVHVAELLSDIAAGRDGFGFVPPAIRTRALEATNAAIHCIVETQVVQDGKRLGWGQQHDALTLRPTSARNFEPAALSSTESARILLFLMEIEAPSDAVKQAIRGGVAWLNTSVIRDRAWVKSDQGYQLVTEQGAKPLWSRFYSLDGNKPVFGDRDKTIHDDVMGISQERRTGYAWYTTSPQKALSAFTKWEKRS | soluble |
| MEIKEMVSLARKAQKEYQATHNQEAVDNICRAAAKVIYENAAILAREAVDETGMGVYEHKVAKNQGKSKGVWYNLHNKKSIGILNIDERTGMIEIAKPIGVVGAVTPTTNPIVTPMSNIIFALKTCNAIIIAPHPRSKKCSAHAVRLIKEAIAPFNVPEGMVQIIEEPSIEKTQELMGAVDVVVATGGMGMVKSAYSSGKPSFGVGAGNVQVIVDSNIDFEAAAEKIITGRAFDNGIICSGEQSIIYNEADKEAVFTAFRNHGAYFCDEAEGDRARAAIFENGAIAKDVVGQSVAFIAKKANINIPEGTRILVVEARGVGAEDVICKEKMCPVMCALSYKHFEEGVEIARTNLANEGNGHTCAIHSNNQAHIILAGSELTVSRIVVNAPSATTAGGHIQNGLAVTNTLGCGSWGNNSISENFTYKHLLNISRIAPLNSSIHIPDDKEIWEL | soluble |
| MLGDGLSVALAGLLHDVGKLYSRARWGERDDQVPDRTHTAYTAHFVREHAGLFRGAGLDPDWLARTASRHHEGWRDRPQYRPETPEEWCVALADTYASKEREEGEGGGSPPEVPLSPPFRRLLLGGEEGREGGYSPVGAGGRVGLEAGGLYPEERPNVSKDVYKRLLERLEGRLEEMARFSLGKEALVLNLALALQETLSLVPSDTQSEPDVSLYDHLRLTAAIAHALWLFHGGSPSAQNLRQDGEKFLLVVGDMGGIQGHIYRIAGAEAGVGGIAKRLRARSLEVSLAAEAMALGLLWRLGLTSLNRILGAGGKFYLLLPNTEEARAALEGTREAWGRWALKRGGSLVPHLAWVAFRGQDFRDFAALLKRLHEALAREKLRPFAFLASTGGVLGAPLRPCAACGLEPARRDEPGSLCPDCEREAALGARLPRSDRVGFFLEEAPRPYLDFPGLKVGLGGPLEGAFHLFRARLDFAPWPDPSEAKPLLGHLPRVEHALKAKGWSLEAYRAWAEEEGLLEDEEPHPEKVLTFAELAALSEGAPYLGALMLDADRMGEAFATGFRREGRDLATPSRLAALSRTLEVFFTTEVLTLLEEPRRYRERLGWDDLEAQRKEARYPLLYSVYSGGDDLFLLGPWDALLDFALDLERLYRLFTRHPRLTLSGGFLLVPPSLPVPELARLLGEAEKRAKAEGRERLFLFGQAVPWETLRGLRAWAEGLRQDLRAERVSRAQVYRWLLLWRRFSPLEDPGERMRYKPLLAYALRRVRERDEEAWKRYLKLLDHQDPAWAYLPVWVQWALYRERRV | soluble |
| MEDELEKYKRENADLKKEIERLKNSSASNTYKVIFEASPDILIQLNADYKIIVIHIPNIEEERVNTVVGKDIFDVTPEYTHVKMKNALTSVFRDGEVVKYFSEGETMGSYRYYDNYLSPIKDAEGNITTVYFRSRDIT | not soluble |
| MESYLTVIEQNGQLLVDSREVAEMVGKRHTDLLRSIDGYVAILLNAKLRSVEFFLESTYKDATGRSLKHFHLTRKGCDMVANKMTGAKGVLFTAQYVSKFEEMEKALKARPSLIDTYLDMNEDERAIAYFTERKAKRELQEQLTLAEPKVEKYDRFLNTDGLMKIGQVAKAIGIKGMGQNNLFRFLRENKVLIDGTNKNAPYQKYVERGFFQVKTQETSVGIKTITLVTPKGADFIVDLLKKHGHKREIAS | not soluble |
| VMGKRYVATPQQSQWEMVVNTPLECQLVHPIPSFGDAVFSSRANKKINLDFELKMRRPMGETRNVSLISMPPPWRPGEHADRITNLKFFKQFDGYVGGQTAWGILSELEKGRYPTFSYQDWQSRDQRIEVALSSVLFQNKYNAFSDCISNLLKYSFEDIAFTILHYERQGDQLTKASKKRLSQIADYIRHNQDIDLVLVATYTDSTDGKSASQSLSERRAESLRDYFQSLGLPEDRIQVQGYGKRRPIADNGSPIGKDKNRRVVISLGRTQVHHHHHH | soluble |
| MNRTLPLLPALALGVLLGLPASGQATCYRVTSVGSETTTSNTQIRPGEGTAGSWTGACDTCNGSLGLPSVVNVSDESFQPYPTLIASAVAPLTQYGATGGYDPERVFFRCSAGDAVYEMFSTNGDDLYSGYYTGADTVGNDIGLQDAYRTAWPNVLLRLTNVETGETITPIWKERQLSGLDIDSRGFQLVKAKNLAAVRAELYSAPLEAIRYYSPTILSQPYSYTQPAAYIAIKGPGLTAPTVGQAHVGGNWGGWYSNWPGAIGLYRYVTLKRYPTCAVMTVTPHVQFPSITLAEIDSGGVREAPFELTFKCQSGMTNGTGAGATALGIRVSSGALAASPALGLVNASGGLSYLLSDRYGEPGIARGVGIRIYRDGTPMTLLANENSAGGSNAEATGWYPAIGGATQANGGSGGIDLYRETFRARLEKLALGSQPGVTAGRVEATAQVVIRVQ | not soluble |
| EEAKEGVPKVAYISLSPPFVGNYALDGSPRLRVYKADVALRVTGDEAAKTVKHHEPLIRNQLVALFTQQTVDSMSNVEAKEHLRQEALKQVQQVLEAEEGKPIVEDLLFNNLIVQ | not soluble |
| MMSGAVEPVSVIFPQSTSSGVEVLYQQFSFGRYFNQIAAGVITGLIQAHQHSGHGPLRILEVGGGTGGTTAWLLPELRNVADVRYCFTDISALFSRRAEDKFSEYDFVEYAQFDLQKPASEQGFQAGHYDLIVAANVIHATQHVGQTLHNLRPLLKPGGALLMREITRPMRLFDFVFGPLVLPLHDEQARGGELFLSTAHWQQQCLESGFERLDWLP | not soluble |
| MSTPPAAPLRIALVGDHDPHITAHRAIPLALRLAGEALGLEIAFDWLASDRLPAEPALERYDGFWCVPGSPYRDADAVLRLIAHARGRRRPFLGTCAGFQHTILEFARNALGWQAATHGEEHPHSDQAVIAALPCALLEAREDVRLLRGSRLALAYAADWIEADYHCRYAIAPRFAAELTGGALRASAWSADGAIRAVELEQHPFFVATLFQPERAALAGVLPPLPKAFVEACRTQRRDHPRRGPTPYYAVIFSSHRSAVDDGYAEAAERMLELASRQPGYLGVESVRGANGFGITVSYWDSEAAIRAWSRHAEHRDAQARGRHDWYAGFSARIARVEREYAFPAQPDTAQSPASS | not soluble |
